# Laboratory results: patent publication US20240360219A1
# Experiments:
# [1] = molecular target: human TGFβ3 (human) (UniProt P10600)
# [2] = molecular target: human TGFβ1 (human) (UniProt P01137)
# Sequence of UniProt P01137 (P01137 279-390 limits assumed): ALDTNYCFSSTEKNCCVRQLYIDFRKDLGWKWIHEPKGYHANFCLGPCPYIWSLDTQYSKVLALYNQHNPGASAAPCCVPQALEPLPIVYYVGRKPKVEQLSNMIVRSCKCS
# Sequence of UniProt P10600 (P10600 301-412 limits assumed): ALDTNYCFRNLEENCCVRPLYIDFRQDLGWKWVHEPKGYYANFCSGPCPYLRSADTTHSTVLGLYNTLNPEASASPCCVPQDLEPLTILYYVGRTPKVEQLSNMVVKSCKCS
substance,measurement,setting,value
M7824,"IC50, inhibition of TGFβ3-induced Smad2 reporter activity",[1],1.95 nM
same,"IC50, inhibition of TGFβ1-induced Smad2 reporter activity",[2],0.91 nM
